Results from article PMC12255766 (2025).

B1: Venus::LAT-1 (C. elegans latrophilin homolog LAT-1 fused to Venus) [C. elegans] / Nluc::LAG-2 (C. elegans DSL protein/Notch ligand LAG-2 fused to Nanoluciferase) [C. elegans] (parent complex)
chain 1: SNKPTTDESGTISHTICDGEAAELSCPAGKVISIVLGNYGRFSVAVCLPDNDIVPSNINCQNHKTKSILEKKCNGDSMCYFTVDKKTFTEDPCPNTPKYLEVKYNCVVPATTTTTTTTTSTTTTDSSLIVDEEEEAQKDALNSDVIKPVKKKEDVFCSATNRRGVNWQNTKSGTTSSAPCPEGSSGKQLWACTEEGQWLTEFPNSAGCESNWISSRNSVLSGVISSEDVSGLPEFLRNLGSETRRPMVGGDLPKVLHLLEKTVNVIAEESWAYQHLPLSNKGAVEVMNYMLRNQEIWGSWDVTKRKEFASRFILAAEKAMVASAKGMMTSAESNVIVQPAITVEISHKIKMSSQPTDYILFPSAALWNGQNVDNVNIPRDAILKINKDETQVFFSSFDNLGAQMTPSDVTVAIAGTDQTEVRKRRVVSRIVGASLIENGKERRVENLTQPVRITFYHKESSVRHLSNPTCVWWNHHELKWKPSGCKLSYHNKTMTSCDCTHLTHFAVLMDVRGHDLNEIDQTLLTLLTYVGCIISIICLLLTFFAYLIFSRNGGDRVFIHENLCLSLAIAEITFLAGITRTEDSLQCGIIAVALMYMFLSALTWMLLEGYHIHRMLTEVFPSDPRRFTYLLVGYIPPAIITLVAYLYNSDGFGTPDHCWLSTQNNFIWFFAGPACFIFCANSLVLVKTLCTVYQHTSGGYLPCRHDVDSGRSIRNWVKGSLALASLLGVTWIFGLFWVEDSRSIVMAYVFTISNSLQGLFIFLFHVVFAEKMRKDVGHWMYRRGCGGSSNSSPNHKRHNVQRDLMSPGVNSSTGSDFLYNTNDKYLTNSDTTNRLVYNGIMNHPNQMSVYQQHPHHQIYEQQPGTYDYATIAYGDMMPGHRVAAPPAYQRLAVAEGRYGSQHQLYQGWHHRPPPEFSPPPPPLSTGPPNSRHYGTGSSGRRPPSSKMSDDSAYSDGSSSMLTTEVTPQGQTVLRIDLNKPSMYCQDL
chain 2: QARVEVHQEFISSKRVSVRFEIVTESHSPNRPVTFDLFPRGPKTNIILLDTFNPVFNFSIQLVQPFTGQPLGDRIYRKVQFSGTNQPWINDTFTTTSGISLSVATEVTCARNYFGNRCENFCDAHLAKAARKRCDAMGRLRCDIGWMGPHCGQAVDPRKCSCENDGICVSSMIHPSQPNQTSSNEQLICECTNGFTGTRCEIFGFNQFQLTAPRPDACSVKDACLNGAKCFPNGPKVFCSCAVGFIGEFCEISLTTTTPTTVEITVSTSGYSSAVYITVALFVIFSIIIGCFKYKFKPMRQQALARGQVPEPYKMPETKSMLIDPEASEAQKKVFTIEGSVQKIDEEVRYTSAPRKYESNNEYAVIQKSTPPPPSLSPPSIPACHYV

Variants of: B1
Assay: NanoBRET; HEK293 cells; Venus::LAT-1 acceptor, Nluc::LAG-2 donor; parent: 0.0042; read off a plot

Variant	screen value
chain 1 L36A, chain 1 F42A, chain 1 D50A, chain 1 D52A, chain 1 V54A	~0.0053
chain 1 Q354A, chain 1 P355A, chain 1 D357A, chain 1 Y358A, chain 1 L360A, chain 1 L366A, chain 1 W367A	~0.0025
